Measured values: article PMC1179735

Molecular target: T1, indolicidin (Bos taurus (bovine; synthetic peptide), UniProt P33046)
T1 chain: ILPWKWPWWPWRR
Experiment: SPR

CATAATATTC (ssDNA) [ss[AT]]
Kd: 2090 µM

CAGAGAGAGT (ssDNA) [ss[AG]]
Kd: 2440 µM

CGTGTGTGTC (ssDNA) [ss[GT]]
Kd: 115 µM

CGCGGCGGCT (ssDNA) [ss[GC] (ss[CG] in Table 2)]
Kd: 1530 µM
